Reference: patent publication US10064929B2, “Peptides and combination of peptides for use in immunotherapy against breast cancer and other cancers” (immatics biotechnologies GmbH, priority 2015, dated 2018)
Square brackets hold non-standard residues; d marks the D form. Ends that are not written are not given here. pT = C[C@@H](OP(=O)(O)O)[C@H](N)C(=O)O

Tested on: CD8+ T cells
Assay: In vitro T-cell priming with aAPCs loaded with peptide/MHC complexes and anti-CD28 antibody, pMHC multimer readout
Type: cell-based, human
Details: HLA class I peptides; CD8+ T cells of healthy HLA-A*02 donors
Description: In order to obtain information regarding the immunogenicity of the TUMAPs of the present invention, the inventors performed investigations using an in vitro T-cell priming assay based on repeated stimulations of CD8+ T cells with artificial antigen presenting cells (aAPCs) loaded with peptide/MHC complexes and anti-CD28 antibody.
In order to perform in vitro stimulations by artificial antigen presenting cells loaded with peptide-MHC complex (pMHC) and anti-CD28 antibody, the inventors first isolated CD8+ T cells from fresh HLA-A*02 leukapheresis products via positive selection using CD8 microbeads (Miltenyi Biotec, Bergisch-Gladbach, Germany) of healthy donors obtained from the University clinics Mannheim, Germany, after informed consent.
PBMCs and isolated CD8+ lymphocytes were incubated in T-cell medium (TCM) until use consisting of RPMI-Glutamax (Invitrogen, Karlsruhe, Germany) supplemented with 10% heat inactivated human AB serum (PAN-Biotech, Aidenbach, Germany), 100 U/ml Penicillin/100 μg/ml Streptomycin (Cambrex, Cologne, Germany), 1 mM sodium pyruvate (CC Pro, Oberdorla, Germany), 20 μg/ml Gentamycin (Cambrex). 2.5 ng/ml IL-7 (PromoCell, Heidelberg, Germany) and 10 U/ml IL-2 (Novartis Pharma, Nürnberg, Germany) were also added to the TCM at this step.
Generation of pMHC/anti-CD28 coated beads, T-cell stimulations and readout was performed in a highly defined in vitro system using four different pMHC molecules per stimulation condition and 8 different pMHC molecules per readout condition.
The purified co-stimulatory mouse IgG2a anti human CD28 Ab 9.3 (Jung et al., 1987) was chemically biotinylated using Sulfo-N-hydroxysuccinimidobiotin as recommended by the manufacturer (Perbio, Bonn, Germany). Beads used were 5.6 μm diameter streptavidin coated polystyrene particles (Bangs Laboratories, Illinois, USA).
800.000 beads/200 μl were coated in 96-well plates in the presence of 4×12.5 ng different biotin-pMHC, washed and 600 ng biotin anti-CD28 were added subsequently in a volume of 200 μl. Stimulations were initiated in 96-well plates by co-incubating 1×10^6 CD8+ T cells with 2×10^5 washed coated beads in 200 μl TCM supplemented with 5 ng/ml IL-12 (PromoCell) for 3 days at 37° C. Half of the medium was then exchanged by fresh TCM supplemented with 80 U/ml IL-2 and incubating was continued for 4 days at 37° C.
This stimulation cycle was performed for a total of three times. For the pMHC multimer readout using 8 different pMHC molecules per condition, a two-dimensional combinatorial coding approach was used as previously described (Andersen et al., 2012) with minor modifications encompassing coupling to 5 different fluorochromes. Finally, multimeric analyses were performed by staining the cells with Live/dead near IR dye (Invitrogen, Karlsruhe, Germany), CD8-FITC antibody clone SK1 (BD, Heidelberg, Germany) and fluorescent pMHC multimers. For analysis, a BD LSRII SORP cytometer equipped with appropriate lasers and filters was used. Peptide specific cells were calculated as percentage of total CD8+ cells. Evaluation of multimeric analysis was done using the FlowJo software (Tree Star, Oregon, USA). In vitro priming of specific multimer+ CD8+ lymphocytes was detected by comparing to negative control stimulations.

Row | Sequence | wells (in vitro immunogenicity, positive wells)
1 | ILFPDIIARA (listed as Homo sapiens) [SEQ ID NO: 66] | ++ (20%-49% = ++)
2 | SLYKGLLSV (listed as Homo sapiens) [SEQ ID NO: 51] | ++ (20%-49% = ++)
3 | TLSSIKVEV (listed as Homo sapiens) [SEQ ID NO: 50] | + (<20% = +)

Same assay, conditions: HLA-A*02 restricted peptides; positive wells among evaluable; healthy donors

Row | Sequence | Wells positive [%] (in vitro immunogenicity)
4 | ALAGSSPQV (listed as Homo sapiens) [SEQ ID NO: 2] | “++” (20%-49% = ++)
5 | GLLGFQAEA (listed as Homo sapiens) [SEQ ID NO: 24] | “++” (20%-49% = ++)
6 | KMPEHISTV (listed as Homo sapiens) [SEQ ID NO: 1] | “+” (<20% = +)
7 | SLADAVEKV (listed as Homo sapiens) [SEQ ID NO: 23] | “+++” (50%-69% = +++)
8 | SLLTEPALV (listed as Homo sapiens) [SEQ ID NO: 21] | “++” (20%-49% = ++)
9 | YIDGLESRV (listed as Homo sapiens) [SEQ ID NO: 22] | “+” (<20% = +)

Target: HLA-A*02:01 (Homo sapiens, UniProt P04439, D140Y/D185E/D98H/E176V/E277Q/G131W/G231S/I119V/I121R/I166T/I218V/L300P/L318F/N151K/N90K/P208A/P217A/Q86G/Q94H/R138H/R169H/T345S)
Assay: MHC binding assay: UV-ligand exchange with β2m ELISA
Details: binding to HLA-A*02:01
Description: Candidate peptides for T cell based therapies according to the present invention were further tested for their MHC binding capacity (affinity). The individual peptide-MHC complexes were produced by UV-ligand exchange, where a UV-sensitive peptide is cleaved upon UV-irradiation, and exchanged with the peptide of interest as analyzed. Only peptide candidates that can effectively bind and stabilize the peptide-receptive MHC molecules prevent dissociation of the MHC complexes. To determine the yield of the exchange reaction, an ELISA was performed based on the detection of the light chain (β2m) of stabilized MHC complexes. The assay was performed as generally described in Rodenko et al. (Rodenko et al., 2006).
96 well MAXISorp plates (NUNC) were coated over night with 2 ug/ml streptavidin in PBS at room temperature, washed 4× and blocked for 1 h at 37° C. in 2% BSA containing blocking buffer. Refolded HLA-A*02:01/MLA-001 monomers served as standards, covering the range of 15-500 ng/ml. Peptide-MHC monomers of the UV-exchange reaction were diluted 100-fold in blocking buffer. Samples were incubated for 1 h at 37° C., washed four times, incubated with 2 ug/ml HRP conjugated anti-β2m for 1 h at 37° C., washed again and detected with TMB solution that is stopped with […]. Absorption was measured at 450 nm. Candidate peptides that show a high exchange yield (preferably higher than 50%, most preferred higher than 75%) are generally preferred for a generation and production of antibodies or fragments thereof, and/or T cell receptors or fragments thereof, as they show sufficient avidity to the MHC molecules and prevent dissociation of the MHC complexes.

Row | Sequence | Peptide Exchange (MHC class I binding score, peptide exchange yield)
10 | ALAGSSPQV (listed as Homo sapiens) [SEQ ID NO: 2] | “+++” (≥50 = +++)
11 | ALEAUQLYL (ALEA[pT]QLYL; listed as Homo sapiens) [SEQ ID NO: 29, U = phospho-threonine] | “+++” (≥50 = +++)
12 | ALEEQLHQV (listed as Homo sapiens) [SEQ ID NO: 19] | “++” (≥20% = ++)
13 | ALNPVIYTV (listed as Homo sapiens) [SEQ ID NO: 5] | “++” (≥20% = ++)
14 | ALTALQNYL (listed as Homo sapiens) [SEQ ID NO: 6] | “+++” (≥50 = +++)
15 | FIIPTVATA (listed as Homo sapiens) [SEQ ID NO: 7] | “++++” (≥75% = ++++)
16 | FLDEEVKLI (listed as Homo sapiens) [SEQ ID NO: 43] | “+++” (≥50 = +++)
17 | FLSSEAANV (listed as Homo sapiens) [SEQ ID NO: 30] | “++” (≥20% = ++)
18 | FLVEHVLTL (listed as Homo sapiens) [SEQ ID NO: 42] | “++++” (≥75% = ++++)
19 | FMSKLVPAI (listed as Homo sapiens) [SEQ ID NO: 9] | “+++” (≥50 = +++)
20 | FSFPVSVGV (listed as Homo sapiens) [SEQ ID NO: 20] | “+++” (≥50 = +++)
21 | GLHSLPPEV (listed as Homo sapiens) [SEQ ID NO: 10] | “+++” (≥50 = +++)
22 | GLLGFQAEA (listed as Homo sapiens) [SEQ ID NO: 24] | “++++” (≥75% = ++++)
23 | GLLPTSVSPRV (listed as Homo sapiens) [SEQ ID NO: 11] | “++” (≥20% = ++)
24 | GLSYIYNTV (listed as Homo sapiens) [SEQ ID NO: 31] | “++” (≥20% = ++)
25 | GLVATLQSL (listed as Homo sapiens) [SEQ ID NO: 32] | “+++” (≥50 = +++)
26 | GLVQSLTSI (listed as Homo sapiens) [SEQ ID NO: 8] | “++++” (≥75% = ++++)
27 | ILFDVVVFL (listed as Homo sapiens) [SEQ ID NO: 25] | “++” (≥20% = ++)
28 | ILTELPPGV (listed as Homo sapiens) [SEQ ID NO: 33] | “++” (≥20% = ++)
29 | KAFPFYNTV (listed as Homo sapiens) [SEQ ID NO: 12] | “++” (≥20% = ++)

Row | Sequence | Peptide Exchange (MHC class I binding score, peptide exchange yield)
30 | KLLDMELEM (listed as Homo sapiens) [SEQ ID NO: 39] | “++++” (≥75% = ++++)
31 | KLYEGIPVL (listed as Homo sapiens) [SEQ ID NO: 13] | “++” (≥20% = ++)
32 | KMPEHISTV (listed as Homo sapiens) [SEQ ID NO: 1] | “+++” (≥50 = +++)
33 | KQLELELEV (listed as Homo sapiens) [SEQ ID NO: 14] | “+++” (≥50 = +++)
34 | LLMUVAGLKL (LLM[pT]VAGLKL; listed as Homo sapiens) [SEQ ID NO: 38, U = phospho-threonine] | “++++” (≥75% = ++++)
35 | SLADAVEKV (listed as Homo sapiens) [SEQ ID NO: 23] | “+++” (≥50 = +++)
36 | SLAEPRVSV (listed as Homo sapiens) [SEQ ID NO: 27] | “+++” (≥50 = +++)
37 | SLAWDVPAA (listed as Homo sapiens) [SEQ ID NO: 26] | “+++” (≥50 = +++)
38 | SLFPSLVVV (listed as Homo sapiens) [SEQ ID NO: 15] | “+++” (≥50 = +++)
39 | SLFSVPFFL (listed as Homo sapiens) [SEQ ID NO: 28] | “++++” (≥75% = ++++)
40 | SLLSEIQAL (listed as Homo sapiens) [SEQ ID NO: 35] | “++++” (≥75% = ++++)
41 | SLLTEPALV (listed as Homo sapiens) [SEQ ID NO: 21] | “+++” (≥50 = +++)
42 | SLNDQGYLL (listed as Homo sapiens) [SEQ ID NO: 41] | “+++” (≥50 = +++)
43 | SLVEGEAVHLA (listed as Homo sapiens) [SEQ ID NO: 4] | “++” (≥20% = ++)
44 | SMMGLLTNL (listed as Homo sapiens) [SEQ ID NO: 16] | “++++” (≥75% = ++++)
45 | TIASSIEKA (listed as Homo sapiens) [SEQ ID NO: 17] | “++” (≥20% = ++)
46 | TLLGLAVNV (listed as Homo sapiens) [SEQ ID NO: 36] | “++++” (≥75% = ++++)
47 | YIDGLESRV (listed as Homo sapiens) [SEQ ID NO: 22] | “+++” (≥50 = +++)
48 | YILLQSPQL (listed as Homo sapiens) [SEQ ID NO: 18] | “+++” (≥50 = +++)
